Consider 5 molecules from patent publication US20160002297A1, “THERAPEUTIC AGENTS” (NATIONAL UNIVERSITY OF SINGAPORE, priority 2013, published 2016).

The test system of assay [1] is HUVECs. The experiment in a line: Uptake of FITC-labelled peptide by cultured HUVECs. Particulars: compared to FITC-labeled cRAA peptide. Type of assay: cell-based, human. From the text: FIG. 11 FITC-RKD peptide enters cultured HUVECs likely by endocytosis;
The subject of assay [2] is 4T1 breast carcinoma cells. Put plainly: FITC-RKD binding to the 4T1 breast cancer cell surface in vitro. The class given is cell-based. To be noted: 24 h treatment. The protocol:
FIG. 12a FITC-RKD peptide binds to cell-surface GRP78. […] 4T1 breast carcinoma cells were treated with FITC-RKD (green) 24 h. Cells were fixed and stained by Phalloidin (red) to represent the cell outline. Nuclei were counter stained by DAPI (blue).

In assay [3] the target is T1, GRP78 (Homo sapiens, UniProt P11021). Put plainly: Co-immunoprecipitation with GRP78. Type of assay: binding. The protocol:
(§1) The membrane fraction of HUVECs was isolated by using Mem-PER Eukaryotic Membrane Protein Extraction Kit which was also obtained from Pierce (Rockford, Ill., USA).
1 μg antibodies of GRP78 were pre-immobilized on 20 μl protein A/G agarose beads from Santa Cruz (Santa Cruz, Calif., USA) for 1 h at room temperature. Unbound antibodies were washed out by 100 mM Tris-Hcl (pH 8.0). Then 1 μg ISM and 1 μg GRP78 (or 1 mg membrane fraction protein lysates containing GRP78) were incubated with GRP78 antibody mounted beads for 4 h at 4° C. After removing the unbound proteins, precipitates were resolved by SDS-PAGE and analyzed for the presence of ISM, GRP78 or AACs by Western blotting.
Target sequence in this assay (P11021 19-654, species assumed): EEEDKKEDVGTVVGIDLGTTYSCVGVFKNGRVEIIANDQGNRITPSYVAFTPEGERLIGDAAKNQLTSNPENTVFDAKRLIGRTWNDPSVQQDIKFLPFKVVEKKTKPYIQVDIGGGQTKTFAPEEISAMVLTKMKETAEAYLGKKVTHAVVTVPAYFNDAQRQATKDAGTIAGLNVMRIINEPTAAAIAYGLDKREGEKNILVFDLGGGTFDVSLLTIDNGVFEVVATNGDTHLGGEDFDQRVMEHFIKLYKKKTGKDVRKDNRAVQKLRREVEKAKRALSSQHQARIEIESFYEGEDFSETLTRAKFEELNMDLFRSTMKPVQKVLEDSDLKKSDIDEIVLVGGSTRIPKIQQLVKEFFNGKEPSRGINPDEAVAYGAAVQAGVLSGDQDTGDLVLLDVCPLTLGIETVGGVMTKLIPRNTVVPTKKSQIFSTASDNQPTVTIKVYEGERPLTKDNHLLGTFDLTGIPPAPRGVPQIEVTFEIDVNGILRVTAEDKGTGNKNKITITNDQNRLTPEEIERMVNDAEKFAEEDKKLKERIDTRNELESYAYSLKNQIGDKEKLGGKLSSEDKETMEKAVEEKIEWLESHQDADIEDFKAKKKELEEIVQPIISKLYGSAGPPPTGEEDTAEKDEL

The subject of assay [4] is B16 melanoma. The experiment in a line: FITC-RKD targeting to subcutaneous B16 tumor in mice after intravenous delivery. Type of assay: in vivo, mouse. To be noted: delivered intravenously. From the text: FIG. 9 FITC labelled cRKD (FITC-RKD) targets to subcutaneous B16 tumor in mice when delivered intravenously.
FIG. 10 FITC-RKD targets both the B16 melanoma tumor cells and tumor ECs when delivered intravenously;

Assay [5] deals with T2, GRP78, purified recombinant protein (UniProt P11021 19-654, limits assumed).
T2 construct: also called glucose-regulated protein 78 kDa; BiP
Put plainly: ELISA solid phase-binding assay, GRP78 titrated on the coated ligand.

Assay [6] relates to endothelial cells (ECs). Put plainly: Apoptosis assay (Cell Death ELISA) in cultured ECs. Type of assay: cell-based. The protocol:
ECs (2×10^4 cells per well) in 96-well plate were starved in 2% FBS basal CSC medium for 3 h. Cells were then incubated with peptides of various concentrations and 15 ng/ml VEGF for 24 h. Apoptosis was detected by measuring cytosolic oligonucleosome-bound DNA using a Cell Death ELISA kit purchased from Roche (USA). Plots represented the mean of 3 wells of apoptotic cells in 96 well plate (±SEM).

Assay [7] has as its target T1, GRP78. The experiment in a line: ELISA solid phase-binding assay for binding affinity to GRP78. The protocol: (§2) ELISA solid phase-binding assay was used to determine the dissociation constant between ISM or cyclic peptide and GRP78 as previously described with minor modification (Nishiuchi, Takagi et al. 2006). 96-well plates were coated with 50 μl of 10 nM cyclic peptide at 4° C. overnight. Nonspecific binding sites were blocked with 1% BSA for 2 h at room temperature. Increasing concentrations of GRP78 were incubated with immobilized cyclic peptide. After washing, the amount of bound GRP78 was quantified by ELISA. The value for Kd was calculated by GraphPad Prism software.
Background: An ELISA detects its analyte on a solid surface through an enzyme-linked reagent.
Target sequence in this assay (P11021 19-654, species assumed): as above

Assay [8] has as its system ECs. Put plainly: Cell attachment (EC adhesion) assay. The class given is cell-based. To be noted: peptide coated on plastic surface. The protocol: 96-well plates were coated with 50 μl of 1 μM ISM at 4° C. overnight. Nonspecific binding sites were blocked with 1% BSA for 2 h at 37° C. ECs were harvested and incubated in CSC basal medium containing 4 μg/ml neutralizing antibodies or control IgG for 30 min. 2[…]104 cells were plated to each well and allowed to attach for 60 min at 37° C. Attached cells were fixed by 10% formalin and stained with 0.2% crystal violet. Absorbed crystal violet was extracted by 10% acetic acid and quantified by measuring the absorbance of eluted dye at 595 nm with a microplate reader.

Assay [9] has as its system HUVECs. The experiment in a line: Tube formation assay on Matrigel. Type of assay: cell-based, human. On the procedure:
HUVECs (1×10^4) were pre-treated with peptides of various concentrations for 30 min before being plated onto the polymerized Matrigel (Millipore, USA) in 15-well μ-slide (Ibidi, Germany). After 4-6 h, capillary network was documented using Zeiss Axiovert200 inverted microscope (Maple Grove, Minn., USA). Tube length was quantified by measuring the length of branches in representative fields using ImageJ software. Plots represented the mean of 3 wells of tubular length in 15-well μ-slide (t SEM).

The target in assay [10] is T2, GRP78, purified recombinant protein. The experiment in a line: ELISA solid phase-binding assay, compared with cRKD. The protocol:
as §2
Using similar ELISA method, we determined the binding affinity between kRKD peptide and GRP78 using purified recombinant GRP78 protein.

In assay [11] the test system is B16F10 melanoma. The experiment in a line: Mouse tumorigenesis: subcutaneous B16F10 melanoma, intravenous treatment from day 0. The class given is in vivo. The protocol: FIG. 4 Recombinant ISM and ISM derived cRKD peptide inhibit B16F10 tumour growth in vivo. A. Tumour growth curve in mice. X-axis represents the days after 5×10^5 tumour cell inoculation. Groups consisted of control mice receiving no treatment, recombinant ISM, cRKD peptide and its control-cyclic RAA peptide, given in six doses of 250 μg/mouse through tail vein injection on days 0, 2, 4, 6, 8, and 10 (5 mice in each group, each mice with one tumour). **: p<0.01,*: p<0.05, n=5. B. Tumour weight at the end of the experiment (14 days after tumour cell inoculation). C. Recombinant ISM and cRKD peptide inhibits B16F10 tumour growth. […] Paraffin sections of tumors from mice groups treated by control, ISM, cRAA and cRKD peptides were probed for microvessel density, tumor cell proliferation and apoptosis through immunofluoresence staining using anti-CD31 (A), anti-PCNA (B) and TUNEL staining (C) respectively. Representative photos are shown. (D) Quantification of microvessel density. Microvessel density is the number of microvessels per microscopic field. (E) Quantification of cell proliferation in tumor sample. Cell proliferation is presented as the percentage of PCNA positive cells out of the total number of cells (DAPI positive cells) in the microscopic field. (F) Quantification of apoptosis in tumor. Apoptosis is quantified as the percentage of TUNEL positive cells out of the total number of cells (DAPI positive cells) in the microscopic field. Plots represent the mean of 3 fields per section, 3 sections per tumor and 2 tumors per group (±SEM). ** P≦0.01, * P≦0.05; Adult 8-week-old female C57BL/6J mice were used in this study. Animal care and experimentation was carried out under the institutional guidelines issued by the local institutional animal care and use committee (IACUC; protocol 066/12). 5×10^5 B16F10 cells in 0.1 ml PBS were injected subcutaneously into the dorsal left flank of the mouse. Twenty mice were assigned into 4 different groups consisted of control mice receiving no treatment, recombinant ISM, cyclic RKD peptide and its peptide control-cyclic RAA peptide, given in six doses of 250 μg through tail vein injection on days 0, 2, 4, 6, 8, and 10 (5 mice in each group, each mice with one tumor). Health status of the mice was monitored over two weeks and visible tumor size were measured daily by calipers after 8 days until the end point (day 14). Tumor volume was calculated using the following formula: 0.52×length×(width)^2 mm^3, where the largest dimension of the tumor is considered as the length and the width is the perpendicular dimension. On day 14, mice were sacrificed, and their dorsal flank was opened and photographed to exam the vascularization. Then tumors were excised and weighed followed by either fixing in 4% paraformaldehyde for sectioning or snap-freezing in liquid nitrogen for further analysis. Paraffin-embedded tissue sections of 5 μm were deparaffinized by heating at 60° C. for 7 minutes before deparaffinizing in histoclear followed by the rehydration in graded series of alcohol (100%, 90%, 80%, and 70% ethanol in ddH2O) and finally in PBS for 5 minutes. Antigen retrieval was done in a bench-top 2100-Retriever according to the protocol of the manufacturer (Electron Microscopy Sciences, Hatfield, Pa.). The sections were blocked with 3% bovine serum albumin (BSA) in a humidified chamber for 1 hour at room temperature followed by overnight incubation with the anti-CD31 (Santa Cruz Biotechnology, Santa Cruz, Calif.), anti-PCNA antibody (Santa Cruz Biotechnology), anti-GRP78 antibody (Santa Cruz Biotechnology), or anti-His tag antibody (Santa Cruz Biotechnology) at 4° C. The following day, unbound antibody was washed with 1×PBS containing 0.1% Tween-20 (1×PBST) and incubated with the corresponding Alexafluor 568 secondary antibodies (Life Technologies) for 1.5 hours at 37° C. Sections were rinsed again and incubated for 10 minutes with DAPI at 1 μg/mL to visualize the DNA in the cell nucleus. […]

Assay [12] addresses T1, GRP78. Put plainly: Pull down assay with HUVEC plasma membrane extract. The class given is binding. More on the design: Incubation of ISM with plasma membrane extract from HUVECs; endogenous in cells; host or cells: HUVEC plasma membrane fraction. To be noted: plasma membrane extract from HUVECs.
Description: His-tagged ISM and its binding partners from plasma membrane extract were pulled down by Epitope Tag Protein Isolation Kit with separation columns purchased from μMACS (Bergisch Gladbach, Germany). For searching potential binding partners of ISM, eluants were subjected to SDS-PAGE and stained with coomassie blue. Excised bands were identified by MALDI-TOF-TOF mass spectrometry analysis.
as §1
Target sequence in this assay (P11021 19-654): as the sequence (P11021 19-654, species assumed) above

Positions of bridges follow the written chain, without caps; N, C: chain ends. No end group written: not given here. *: point of attachment. FITC = O=C1OC2(c3ccc(O)cc3Oc3cc(O)ccc32)c2ccc(NC(=S)*)cc21

T2 sequence (P11021 19-654 limits assumed): as the sequence (P11021 19-654, species assumed) above

For the molecule “FITC-RKD: FITC-CRKDC, disulfide bridge 1-5 ({FITC}-CRKDC; disulfide 1-5)”, in [1], the “uptake by cultured HUVECs” value is “efficiently taking up by cultured HUVECs”. In addition, the “binding to 4T1 cell surface” value in assay [2] is given as “binds 4T1 breast cancer cell surface in vitro”. For the same molecule, the “binding to cell-surface GRP78 by co-immunoprecipitation” value in [3] (anti-FITC antibody, plasma membrane fraction of cultured HUVECs) was “binds cell-surface GRP78”. Moreover, in assay [4], the “cell types labelled in the tumor” value is “Both tumor cells and tumor blood vessel endothelial cells are labeled”; the “labelling of xenograft melanoma” value is reported as “preferentially labelled xenograft melanoma”.
“Isthmin (ISM), recombinant His-tagged protein (from UniProt A2ATD1 30-454) (ligand)”: in [5], the Kd (in general, the concentration at which binding is half-saturated) is 8.6 nM.
“cRAA: Negative control mutant peptide, sequence CRAAC, disulfide bridge 1-5 (disulfide 1-5) [reference compound]”: the “pro-apoptotic activity at 1 μM” value in assay [6] (1 μM peptide, cultured ECs with VEGF) is recorded as “almost no activity”. The “induction of EC apoptosis (pro-apoptotic activity)” value in assay [6] (cultured ECs in the presence of VEGF, 24 h) is reported as “completely destroyed the proapoptotic activity”. Besides, the “affinity for GRP78, fold less than cRKD” value in assay [7] (relative to cRKD) is recorded as “about 50 fold”. Besides, the “EC attachment and adhesion” value in [8] is recorded as “lost the ability to mediate EC adhesion”. Further, the “anti-angiogenic activity at 1 μM” value in assay [9] (1 μM peptide) is on record as “no anti-angiogenic activity”. For the same molecule, the “inhibition of EC tube-like structure formation on Matrigel” value in assay [9] (dose-dependence) was “lost this activity”.

B1: Cyclic RAA peptide (cRAA) (peptide)
peptide: CRAAC
modifications: disulfide 1-5
notes: Mutant control of cRKD, with K and D both changed to A; also called control-cyclic RAA peptide
Consider B1, for which the “fold lower affinity than cRKD” value in assay [10] is approximately 50 fold.

B2: ISM: Isthmin, a 60 kDa secreted angiogenesis inhibitor; recombinant His-tagged mouse protein (protein, UniProt A2ATD1 30-454, looked up)
Isthmin-1: SDRQDAAAGNNNLNLESDSTSETSFPLSKEAPEEHQVVHQPFPRQRFPPETGHPSLQRDGPRSFLLDLPNFPDLSKADINGQNPNIQVTIEVVDGPDSEAEKDQHPENKPSWSLPAPDWRAWWQRSLSLARTNSGDQDDKYDSTSDDSNFLSVPRGWDRPAPGHRTFETKEQPEYDSTDGEGDWSLWSVCSVTCGNGNQKRTRSCGYACIATESRTCDRPNCPGIEDTFRTAATEVSLLAGSEEFNATKLFEVDMDSCERWMSCKSEFLKKYMHKVINDLPSCPCSYPTEVAYSTADIFDRIKRKDFRWKDASGPKEKLEIYKPTARYCIRSMLSLESTTLAAQHCCYGDNMQLITRGKGAGTPNLISTEFSAELHYKVDVLPWIICKGDWSRYNEARPPNNGQKCTESPSDEDYIKQFQEAREY
modifications: His tag
notes: recombinant His-tagged mouse protein
In the case of B2, the tumor growth result in [11] (250 μg/mouse intravenous every 2 days, days 0-10, subcutaneous B16F10) is given as “suppressed tumor growth”. Further, the “vascularization (blood vessels supplying the tumor)” value in assay [11] (250 μg/mouse intravenous, day 14) is “reduced vascularization”. Besides, the “tumor angiogenesis, tumor cell proliferation and tumor cell apoptosis” value in assay [11] (immunofluorescence of tumor sections) was “suppress tumor angiogenesis, tumor cell proliferation and induce tumor cell apoptosis”. Also, the “apoptosis of tumor cells and tumor ECs (CD31/TUNEL double staining)” value in [11] (tumor sections, compared to controls) was “both tumor cells as well as tumor ECs became apoptotic”. Moreover, the “tumor vessel density (anti-CD31 immunofluorescence)” value in assay [11] (tumor tissue sections) was “obvious reduction of tumor vessel density”. Also, the Kd in assay [7] (purified recombinant GRP78) amounted to 8.6 nM. The “ISM-GRP78 interaction by co-immunoprecipitation” value in assay [3] (purified recombinant ISM and GRP78 proteins) is “confirmed the ISM-GRP78 interaction”. For the same molecule, in assay [12], the “binding partner of ISM identified by pull-down” value was “identified GRP78 as a ISM binding protein”.
